Here are results for one substance from PMC8749432.

Assay [1] has as its target HIV-1 BG505.W6M.B1 envelope glycoprotein L193A on SHIV-BG505 virions (HIV-1).
The target of assay [2] is HIV-1 BG505.W6M.B1 envelope glycoprotein A204E on SHIV-BG505 virions (HIV-1).
Assay [3] has as its target HIV-1 BG505.W6M.B1 envelope glycoprotein I423A on SHIV-BG505 virions (HIV-1).

With “Soluble rhesus CD4 (Met1-Trp390) with C-terminal 6×His tag (from UniProt P16003 26-390) (domain or fragment)”, the values for the neutralisation of SHIV-BG505 infection of TZM-bl cells by soluble rhCD4; sensitivity against WT SHIV (fold more sensitive than WT SHIV) in assay [1], in assay [2] and in assay [3] were 3, 1500 and 30, respectively.
